# Results published in the supplement of paper PMC10567573.
# B1: SEC22B (parent)
# chain: FPKKLAFAYLEDLHSEFDEQHGKK
# Variants of: B1
# Test: protein stability index of a GFP-peptide fusion (GPS, HEK-293T) (PSI 1-6); higher = more stable
# Conditions: c terminus: a fixed tail appended
# 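Further: lentivirally expressed fusions sorted by FACS into six bins by GFP to DsRed ratio, PSI derived from sequencing read proportions per bin multiplied by bin number.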
row,Variant,protein stability index
1,H14N,2.46
2,H14G,2.57
3,H14T,2.89
4,H14C,2.07
5,H14V,1.98
6,H14E,2.13
7,H14D,2.53
8,H14Y,2.28
9,H14P,2.2
10,H14M,2.23
11,H14K,2.96
12,H14Q,2.85
13,H14W,2.06
14,H14F,1.91
15,H14A,2.47
16,H14L,2.31
17,H14R,2.55
18,H14S,2.75
19,H14I,1.68
20,L13S,2.56
21,L13A,3.2
22,L13Y,2.47
23,L13P,2.61
24,L13K,3.2

row,Variant,protein stability index
1,L13V,2.55
2,L13T,2.79
3,L13E,3.23
4,L13F,2.5
5,L13G,3.51
6,L13H,2.93
7,L13Q,3.21
8,L13D,2.54
9,L13I,2.62
10,L13N,3.13
11,L13C,2.83
12,L13M,2.3
13,L13R,2.79
14,L13W,2.99
15,A6G,2.45
16,A6M,2.3
17,A6F,2.4
18,A6S,2.69
19,A6Y,1.66
20,A6N,2.56
21,A6D,3.13
22,A6V,2.45
23,A6H,2.91
24,A6I,2.35

row,Variant,protein stability index
1,A6W,2.74
2,A6E,3.96
3,A6P,3.06
4,A6C,2.29
5,A6K,2.59
6,A6L,1.83
7,A6T,3.03
8,A6Q,3.18
9,A6R,2.28
10,F1P,4.6
11,F1Q,4.51
12,F1I,3.56
13,F1R,3.98
14,F1T,4.37
15,F1S,4.52
16,F1K,4.8
17,F1L,3.79
18,F1Y,2.53
19,F1H,3.84
20,F1V,4.13
21,F1W,3.51
22,F1G,4.02
23,F1M,3.97
24,F1N,4.88

row,Variant,protein stability index
1,K3N,2.23
2,K3C,1.69
3,K3G,2.29
4,K3E,2.95
5,K3W,1.96
6,K3F,1.91
7,K3R,2.42
8,K3H,1.17
9,K3V,2.53
10,K3A,1.91
11,K3Y,1.74
12,K3Q,2.4
13,K3I,2.17
14,K3D,2.25
15,K3L,2.79
16,K3P,3.08
17,K3S,2.01
18,K3M,2.2
19,K3T,2.53
20,D18Q,2.25
21,D18T,2.56
22,D18A,2.38
23,D18N,2.3
24,D18S,2.92

row,Variant,protein stability index
1,D18K,1.76
2,D18R,2.03
3,D18L,2.22
4,D18G,2.38
5,D18E,2.65
6,D18M,2.22
7,D18P,2.47
8,D18F,2.04
9,D18H,2.38
10,D18C,1.9
11,D18I,1.92
12,Y9A,2.85
13,Y9F,1.99
14,Y9C,2.18
15,Y9K,3.08
16,Y9H,3.1
17,Y9P,2.9
18,Y9Q,2.91
19,Y9L,2.63
20,Y9S,2.73
21,Y9G,3.27
22,Y9R,3.09
23,Y9E,3.04
24,Y9M,2.48

row,Variant,protein stability index
1,Y9V,2.2
2,Y9T,2.5
3,Y9D,3.15
4,Y9N,3.67
5,Y9I,1.8
6,Y9W,1.67
7,A8I,2.4
8,A8F,2.26
9,A8K,2.91
10,A8G,3.04
11,A8P,2.84
12,A8H,2.72
13,A8Y,1.79
14,A8S,3.06
15,A8M,2.68
16,A8D,3.39
17,A8V,2.31
18,A8L,1.88
19,A8Q,3.08
20,A8R,2.34
21,A8C,2.09
22,A8N,2.83
23,A8T,2.64
24,A8E,3.27

row,Variant,protein stability index
1,D12L,1.77
2,D12A,2.1
3,D12F,1.97
4,D12Q,2.22
5,D12I,1.72
6,D12H,2.25
7,D12G,2.77
8,D12E,3.72
9,D12S,2.16
10,D12P,2.33
11,D12W,2.49
12,D12R,1.93
13,D12M,2.39
14,D12T,2.39
15,D12V,1.85
16,D12Y,1.89
17,D12C,1.95
18,D12K,2.38
19,D12N,2.97
20,L10R,2.75
21,L10M,2.43
22,L10F,2.31
23,L10I,2.34
24,L10P,2.92

row,Variant,protein stability index
1,L10D,3.56
2,L10E,3.35
3,L10H,2.75
4,L10N,3.33
5,L10S,3.15
6,L10T,3.16
7,L10G,2.78
8,L10K,3.46
9,L10W,2.27
10,L10C,2.21
11,L10Q,3.39
12,L10Y,2.84
13,L10A,2.47
14,L10V,2.11
15,F7A,3.63
16,F7S,3.8
17,F7I,3.24
18,F7N,3.79
19,F7W,1.95
20,F7G,3.8
21,F7V,2.67
22,F7M,2.53
23,F7L,2.65
24,F7D,3.98

row,Variant,protein stability index
1,F7T,3.33
2,F7P,3.39
3,F7Y,2.5
4,F7H,3.42
5,F7Q,4.16
6,F7K,3.8
7,F7R,3.28
8,F7C,3.47
9,F7E,4
10,F17V,2.67
11,F17A,2.68
12,F17C,2.87
13,F17Q,3.28
14,F17H,2.66
15,F17W,2.57
16,F17Y,2.91
17,F17D,3.03
18,F17L,2.54
19,F17I,2.6
20,F17M,2.45
21,F17P,2.75
22,F17K,2.98
23,F17T,2.99
24,F17N,2.76

row,Variant,protein stability index
1,F17E,3.04
2,F17R,2.85
3,F17S,2.64
4,F17G,2.4
5,P2Q,2.88
6,P2S,3.06
7,P2K,2.55
8,P2A,1.84
9,P2E,4.11
10,P2N,3.44
11,P2C,1.87
12,P2Y,2.16
13,P2W,1.95
14,P2G,3.38
15,P2F,2.62
16,P2H,2.17
17,P2I,1.98
18,P2R,2.94
19,P2V,2.29
20,P2T,3.05
21,P2M,3.04
22,P2D,4.59
23,P2L,1.68
24,E11Q,1.94

row,Variant,protein stability index
1,E11G,2.08
2,E11N,2.61
3,E11R,2.24
4,E11P,1.8
5,E11V,1.77
6,E11T,2.64
7,E11Y,1.98
8,E11S,1.78
9,E11H,1.86
10,E11I,1.87
11,E11W,2.02
12,E11K,2.63
13,E11D,2.37
14,E11F,1.97
15,E11A,2.29
16,E11C,1.88
17,E11M,2.17
18,E11L,2.35
19,E16H,2.08
20,E16V,1.87
21,E16L,2.29
22,E16Y,1.56
23,E16Q,2.55
24,E16I,2.07

row,Variant,protein stability index
1,E16G,2.5
2,E16F,1.53
3,E16D,2.34
4,E16R,2.39
5,E16A,2.4
6,E16N,2.15
7,E16K,2.87
8,E16W,1.94
9,E16P,2.25
10,E16T,2.36
11,E16S,2.8
12,E16M,1.93
13,E16C,2
14,L5F,2.17
15,L5E,3.56
16,L5V,2.9
17,L5W,1.59
18,L5H,1.95
19,L5I,2.98
20,L5Q,3.18
21,L5D,3.26
22,L5S,2.64
23,L5G,2.41
24,L5P,1.77

row,Variant,protein stability index
1,L5N,2.65
2,L5T,3.02
3,L5M,1.84
4,L5C,1.66
5,L5K,2.85
6,L5Y,2.52
7,L5A,2.15
8,L5R,2.65
9,K4F,1.97
10,K4S,1.55
11,K4A,1.81
12,K4Y,1.95
13,K4E,4.95
14,K4W,1.05
15,K4I,2.02
16,K4D,3.31
17,K4H,2.87
18,K4N,2.27
19,K4T,2.47
20,K4V,2.25
21,K4P,2.45
22,K4L,2.18
23,K4C,1.78
24,K4M,2.02

row,Variant,protein stability index
1,K4G,2.72
2,K4Q,2.52
3,K4R,1.61
4,S15H,2.22
5,S15N,2.67
6,S15F,2.15
7,S15T,2.41
8,S15R,2.41
9,S15E,2.9
10,S15A,2.15
11,S15I,2.25
12,S15Q,2.73
13,S15V,2.88
14,S15C,2.25
15,S15L,2.85
16,S15K,2.54
17,S15D,2.89
18,S15P,2.42
19,S15Y,2.08
20,S15M,2.5
21,S15W,2.27
22,S15G,2.25
